In assay [1] the target is membrane-bound non-cleavable TNFα (human) (UniProt P01375). As to the kind of experiment: cell-based or functional assay.
In assay [2] the target is CD20 (UniProt P11836). As to the kind of experiment: cell-based or functional assay.

This is an account of results in US20190310251A1.

UniProt P01375, sequence (P01375 whole entry A76L/V77L): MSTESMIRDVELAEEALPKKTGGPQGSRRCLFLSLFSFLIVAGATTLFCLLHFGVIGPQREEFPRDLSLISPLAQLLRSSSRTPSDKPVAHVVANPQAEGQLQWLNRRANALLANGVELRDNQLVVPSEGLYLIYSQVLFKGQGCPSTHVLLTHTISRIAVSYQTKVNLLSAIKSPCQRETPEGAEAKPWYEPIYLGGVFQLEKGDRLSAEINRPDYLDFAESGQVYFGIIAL
UniProt P11836, sequence (P11836 whole entry): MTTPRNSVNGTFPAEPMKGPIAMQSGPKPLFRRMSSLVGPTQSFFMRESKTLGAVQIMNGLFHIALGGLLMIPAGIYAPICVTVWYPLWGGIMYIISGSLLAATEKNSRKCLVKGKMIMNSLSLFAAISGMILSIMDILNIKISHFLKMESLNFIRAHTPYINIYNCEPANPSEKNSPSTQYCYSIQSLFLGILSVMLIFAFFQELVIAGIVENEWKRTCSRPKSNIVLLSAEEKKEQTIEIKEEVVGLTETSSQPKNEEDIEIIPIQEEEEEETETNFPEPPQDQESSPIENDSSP

adalimumab (antibody): in assay [1], the ADCC Reporter Gene Assay, Serum Sample/Control; Hum. Serum + adalimumab is 2.39; the ADCC Reporter Gene Assay, Serum Sample/Control; No Hum. Serum + adalimumab amounted to 2.65; the ADCC Reporter Gene Assay, Target Positive Cells (RLU); Hum. Serum + adalimumab stood at 27000 RLU; the ADCC Reporter Gene Assay, Target Positive Cells (RLU); No Hum. Serum + adalimumab worked out at 30000 RLU. Moreover, in assay [1], the ADCC Reporter Gene Assay, Target+/Target-; Hum. Serum + adalimumab was found to be 12.3 and the ADCC Reporter Gene Assay, Target+/Target-; No Hum. Serum + adalimumab is 17.6.
Take etanercept (Fc fusion): in assay [1], the ADCC Reporter Gene Assay, Serum Sample/Control; Hum. Serum + Etanercept was determined as 2.77; the ADCC Reporter Gene Assay, Serum Sample/Control; No Hum. Serum + Etanercept amounted to 2.66; the ADCC Reporter Gene Assay, Target Positive Cells (RLU); Hum. Serum + Etanercept was determined as 23700 RLU; the ADCC Reporter Gene Assay, Target Positive Cells (RLU); No Hum. Serum + Etanercept was found to be 22800 RLU. Further, in assay [1], the ADCC Reporter Gene Assay, Target+/Target-; Hum. Serum + Etanercept amounted to 13.1 and the ADCC Reporter Gene Assay, Target+/Target-; No Hum. Serum + Etanercept amounted to 14.1.
Regarding rituximab (antibody), in assay [2], the EC50 of the ADCC reporter gene assay (NFAT effector cells & wild type Raji cells, no human serum) came out at 1.2 µg/mL and the EC50 of the ADCC reporter gene assay (iLite effector cells & CD20++ target cells, no human serum) amounted to 0.002 µg/mL.
